One protein from FireProtDB (doi:10.1021/bi962939w) can be followed below.

The conditions of the data set: Mus musculus, 25 °C, CD, whole UniProt chain shown.
Where [1] appears, read: pH 4, Urea, Sodium acetate 10 mM.

B1: Interleukin-6 wild type, P08505 (protein)
chain: MKFLSARDFHPVAFLGLMLVTTTAFPTSQVRRGDFTEDTTPNRPVYTTSQVGGLITHVLWEIVEMRKELCNGNSDCMNNDDALAENNLKLPEIQRNDGCYQTGYNQEICLLKISSGLLEYHSYLEYMKNNLKDNKKDKARVLQRDTETLIHIFNQEVKDLHKIVLPTPISNALLTDKLESQKEWLRTKTIQFILKSLEEFLKVTLRSTRQT
As to B1, under setting [1], the denaturant m value came out at 3 kcal/mol/M, the “denaturant midpoint (higher = more stable)” value (shortened to “denaturant midpoint”) turned out to be 3.59 M and the unfolding free energy stood at 10.8 kcal/mol. Also, under “pH 7.4, GdnHCl, Tris-HCl 10 mM”, the denaturant m value turned out to be 1 kcal/mol/M, the “denaturant midpoint” value was 1.9 M and the unfolding free energy worked out at 1.9 kcal/mol. Also, where the note is “pH 7.4, Urea, Tris-HCl 10 mM”, the denaturant m value amounted to 1.1 kcal/mol/M, the “denaturant midpoint” value came to 5.2 M and the unfolding free energy is 5.7 kcal/mol.
